Assays:
TRX-APRIL (mouse) [1] = molecular target: TRX-APRIL (mouse) (UniProt Q9D777); assay: competitive SPR; elute 1
human BAFF [2] = molecular target: human BAFF (UniProt Q9Y275); assay: competitive SPR; elute 2; interaction observed, curve not fitted adequately
human BAFF [3] = molecular target: human BAFF (UniProt Q9Y275); assay: competitive SPR; elute 1; interaction observed, curve not fitted adequately
TRX-APRIL (mouse) [4] = molecular target: TRX-APRIL (mouse) (UniProt Q9D777); assay: competitive SPR; elute 2
human BAFF [5] = molecular target: human BAFF (UniProt Q9Y275); assay: competitive SPR; elute 1
human BAFF [6] = molecular target: human BAFF (UniProt Q9Y275); assay: competitive SPR; elute 2

TRX-APRIL (mouse), sequence (Q9D777 104-241): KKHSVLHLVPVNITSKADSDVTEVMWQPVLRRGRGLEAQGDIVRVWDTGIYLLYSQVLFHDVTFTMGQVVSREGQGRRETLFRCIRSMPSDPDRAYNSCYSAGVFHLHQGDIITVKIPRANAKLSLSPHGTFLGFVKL
human BAFF, sequence (Q9Y275 82-285): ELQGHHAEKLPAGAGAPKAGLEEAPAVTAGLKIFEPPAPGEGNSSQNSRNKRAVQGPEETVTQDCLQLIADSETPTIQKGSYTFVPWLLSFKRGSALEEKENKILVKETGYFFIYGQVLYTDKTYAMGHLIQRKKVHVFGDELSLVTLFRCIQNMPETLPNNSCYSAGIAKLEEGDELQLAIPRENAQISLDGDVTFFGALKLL
TACI_d1 (first CRD of TACI, residues 32-67), sequence (O14836 32-67): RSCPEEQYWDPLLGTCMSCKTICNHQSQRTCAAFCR

| IC50 (TRX-APRIL (mouse) [1]) | IC50 (human BAFF [2]) | IC50 (human BAFF [3]) | IC50 (TRX-APRIL (mouse) [4]) | IC50 (human BAFF [5]) | IC50 (human BAFF [6]) | Substance |
| --- | --- | --- | --- | --- | --- | --- |
| 3000 nM | > 100 nM | > 100 nM | 1000 nM | – | – | TACI_d1 (first CRD of TACI, residues 32-67) |
| 12 nM | – | – | 129 nM | 6 nM | 23 nM | hTACI CRD1 LS (human TACI CRD1 R32-R67 with NHQSQRT replaced by GQHPKQ of CRD2) |

Source: patent US20080181886A1, “Polypeptides That Bind Baff And/Or April” (Genentech, Inc., priority 2004, published 2008)
